The text below walks through data of US20240239878A1 (SHANGHAI QILU PHARMACEUTICAL RESEARCH AND DEVELOPMENT CENTRE, published 2024).

Assay [1] deals with T1, human DLL3 antigen protein (Kactus Biosystems, Cat. No. DLL-HM103) (human, UniProt Q9NYJ7 27-492).
T1 sequence: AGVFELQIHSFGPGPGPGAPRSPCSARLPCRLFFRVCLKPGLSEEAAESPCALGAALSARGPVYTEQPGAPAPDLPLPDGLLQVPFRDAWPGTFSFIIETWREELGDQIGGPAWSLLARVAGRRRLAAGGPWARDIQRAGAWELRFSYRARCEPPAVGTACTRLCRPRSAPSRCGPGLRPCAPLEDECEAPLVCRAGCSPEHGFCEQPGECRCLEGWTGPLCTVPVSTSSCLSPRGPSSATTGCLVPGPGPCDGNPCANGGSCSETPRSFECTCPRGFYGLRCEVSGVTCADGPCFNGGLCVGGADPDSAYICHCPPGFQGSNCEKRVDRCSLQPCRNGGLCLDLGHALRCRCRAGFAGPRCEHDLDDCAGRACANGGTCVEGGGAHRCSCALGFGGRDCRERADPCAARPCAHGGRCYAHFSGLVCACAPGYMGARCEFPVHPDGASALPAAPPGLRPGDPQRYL
Description: SPR (Biacore 8K), antibody captured on anti-human Fc, DLL3 in solution. As for the experimental part: The affinity and kinetic properties of the humanized anti-DLL3 antibody to human DLL3 were analyzed using a Biacore 8K instrument. CM5 chips were activated with EDC and NHS, followed by immobilization of anti-human Fc murine mAb and blocked with ethanolamine.
Human DLL3 was diluted two-fold serially to serial concentrations (100 nM-0.39 nM) and associated for 90 s and dissociated for 600 s at a flow rate of 50 μL/min.
After completion of each round of the experiment, the captured antibody was removed together with the antigen by washing with a 3M MgCl₂ solution at a flow rate of 30 μL/min for 30 s to complete the regeneration of the chip. The raw data were analyzed using Biacore Insight Evaluation Software (3.0.12.15655) software and fitted with a (1:1) Langmuir model with.
(In SPR one partner is held on a chip, and binding of the other changes the refractive index at the surface.)

In assay [2] the target is T1, human DLL3 antigen protein (Kactus …). Description: affinity assay with human DLL3 antigen protein (kinetics; method not restated, Biacore as in Example 18 implied).
For assay [3] the target is unchanged. The assay is described as follows: affinity assay with human DLL3 antigen protein (kinetics; method not restated, Biacore as in Example 10 implied).
Assay [4] concerns the target T2, human DLL3 on SHP-77 cells (human, UniProt Q9NYJ7 27-618).
T2 construct: also called DLL3-expressing cells (SHP-77)
T2 sequence: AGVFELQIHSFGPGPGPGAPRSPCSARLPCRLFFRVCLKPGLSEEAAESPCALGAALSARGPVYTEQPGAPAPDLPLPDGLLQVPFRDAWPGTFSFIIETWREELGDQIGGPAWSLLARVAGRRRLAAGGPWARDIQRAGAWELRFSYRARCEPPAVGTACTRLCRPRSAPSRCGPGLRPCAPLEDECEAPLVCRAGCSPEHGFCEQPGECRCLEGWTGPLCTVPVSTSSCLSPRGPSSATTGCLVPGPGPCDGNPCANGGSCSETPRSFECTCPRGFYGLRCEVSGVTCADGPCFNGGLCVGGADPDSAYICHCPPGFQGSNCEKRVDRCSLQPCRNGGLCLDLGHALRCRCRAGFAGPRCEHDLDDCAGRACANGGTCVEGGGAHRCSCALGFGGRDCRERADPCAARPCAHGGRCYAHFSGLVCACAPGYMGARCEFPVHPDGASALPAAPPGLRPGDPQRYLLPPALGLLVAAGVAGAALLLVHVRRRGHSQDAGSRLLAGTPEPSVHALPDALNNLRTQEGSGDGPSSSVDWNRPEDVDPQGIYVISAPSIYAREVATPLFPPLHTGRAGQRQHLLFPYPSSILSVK
Description: flow cytometry, SHP-77 cells. A general note: In flow cytometry, cells or beads pass a laser one at a time.

B1: H2-39E2D11 mouse hybridoma-derived humanized anti-DLL3 antibody (antibody, V domains shown)
VH: QVQLVQSGAEVKKPGASVKVSCKASGYTFISYWITWVRQAPGQGLEWMGDIYPGSGSTTNYNEKFKSRVTMTRDTSTSTVYMELSSLRSEDTAVYYCARETTVGGAYAMDYWGQGTLVTVSS
VL: EIVLTQSPATLSLSPGERATLSCRASQSINNNLHWYQQKPGQAPRLLIKYVSQSISGIPARFSGSGSGTDFTLTISSLEPEDFAVYYCQQTNSWPLTFGGGTKLEIK
The term Kd denotes a measure of binding affinity in units of concentration. Read a high Kd as weaker binding. Broadly, the koff is the rate constant with which the complex falls apart. Lower therefore signals a long-lived complex. As a reminder, the kon is a measure of how fast the partners come together. Low values mean slow association, high ones fast association. For the molecule B1, in assay [1], the Kd amounted to 0.576 nM, the koff is 0.00018 s⁻¹ and the kon is 313000 M⁻¹ s⁻¹. In addition, in assay [2], binding was characterised by a dissociation constant (Kd) of 0.739 nM, the koff is 0.000134 s⁻¹ and the kon stood at 181000 M⁻¹ s⁻¹.

B2: hDLL3-3-1 camelid-derived humanized anti-DLL3 antibody (antibody, human IgG1, V domains shown)
VH: EVQLVESGGGLVQPGGSLRLSCAASTYTISSGYMGWFRQAPGKEREGVAAIYIGGSTTLYADSVKGRFTISRDNSKNTLYLQMNSLRAEDTAVYYCAAQLRPNSAYHPLDGRKYNYWGQGTLVTVSS
Usually EC50 stands for the concentration that produces a half-maximal response. A higher EC50 goes with a need for much substance. For B2, in assay [3], the Kd was found to be 0.45 nM, the koff turned out to be 0.000614 s⁻¹ and the kon stood at 1.36e+06 M⁻¹ s⁻¹. In assay [4], it took 0.068 nM to reach a half-maximal effect (EC50) and the “Top MFI” value is 1080 MFI.
